Measurements from US20040005688A1.

How the values were obtained:
[1] = target: Dvl3, mouse homolog of Dsh, C-terminally tagged, expressed from pcDNA3.1 in NIH3T3 cells (mouse) (UniProt Q61062); test: cell-based or functional assay
[2] = target: Dsh, C-terminally tagged, expressed from pcDNA3.1 in NIH3T3 cells (Drosophila) (UniProt P51140); test: cell-based or functional assay
Sequence of Dsh, C-terminally tagged, expressed from pcDNA3.1 in NIH3T3 cells (Drosophila) (P51140 whole entry D276N): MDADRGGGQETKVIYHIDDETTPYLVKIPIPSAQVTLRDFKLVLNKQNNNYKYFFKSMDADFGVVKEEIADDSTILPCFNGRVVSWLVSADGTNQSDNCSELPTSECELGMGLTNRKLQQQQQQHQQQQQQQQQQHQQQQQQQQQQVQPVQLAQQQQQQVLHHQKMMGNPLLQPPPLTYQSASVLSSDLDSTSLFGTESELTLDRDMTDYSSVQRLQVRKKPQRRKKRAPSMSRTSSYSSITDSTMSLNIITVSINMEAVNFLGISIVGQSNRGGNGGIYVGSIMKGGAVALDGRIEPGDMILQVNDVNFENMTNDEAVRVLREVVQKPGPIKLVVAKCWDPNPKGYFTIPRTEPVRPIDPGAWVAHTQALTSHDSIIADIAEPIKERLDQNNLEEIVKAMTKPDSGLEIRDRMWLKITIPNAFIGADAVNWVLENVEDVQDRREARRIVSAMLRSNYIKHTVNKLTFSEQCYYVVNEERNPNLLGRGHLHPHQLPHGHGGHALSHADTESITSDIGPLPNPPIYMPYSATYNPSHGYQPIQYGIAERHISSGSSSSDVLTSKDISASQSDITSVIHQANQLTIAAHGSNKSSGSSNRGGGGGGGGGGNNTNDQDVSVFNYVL

Sequence of Dvl3, mouse homolog of Dsh, C-terminally tagged, expressed from pcDNA3.1 in NIH3T3 cells (mouse) (Q61062 whole entry): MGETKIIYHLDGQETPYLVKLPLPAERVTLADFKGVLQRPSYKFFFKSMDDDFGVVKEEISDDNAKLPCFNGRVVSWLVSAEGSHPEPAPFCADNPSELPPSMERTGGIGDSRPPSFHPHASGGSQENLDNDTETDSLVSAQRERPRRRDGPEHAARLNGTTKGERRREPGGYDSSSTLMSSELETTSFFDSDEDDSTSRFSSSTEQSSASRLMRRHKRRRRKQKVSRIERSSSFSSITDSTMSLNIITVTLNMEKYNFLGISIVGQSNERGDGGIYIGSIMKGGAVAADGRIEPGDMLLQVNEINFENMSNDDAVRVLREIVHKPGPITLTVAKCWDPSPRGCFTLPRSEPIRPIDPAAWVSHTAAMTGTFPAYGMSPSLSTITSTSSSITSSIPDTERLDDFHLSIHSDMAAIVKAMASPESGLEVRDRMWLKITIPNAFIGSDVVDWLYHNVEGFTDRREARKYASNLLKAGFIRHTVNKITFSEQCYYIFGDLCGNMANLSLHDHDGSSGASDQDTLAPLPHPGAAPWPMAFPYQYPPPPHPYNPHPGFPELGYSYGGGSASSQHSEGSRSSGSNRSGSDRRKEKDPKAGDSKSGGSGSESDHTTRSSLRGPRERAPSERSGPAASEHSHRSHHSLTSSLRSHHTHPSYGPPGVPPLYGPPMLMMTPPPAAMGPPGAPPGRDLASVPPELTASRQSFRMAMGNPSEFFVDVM

DAKa, wild type, C-terminally tagged, expressed from pcDNA3.1 in NIH3T3 cells (enzyme)
activation of the LEF1 reporter (luciferase, NIH3T3 cells) [1]: 95 fold | activation of the LEF1 reporter (luciferase, NIH3T3 cells) [2]: 10 fold
